# Measured values: the supplement of paper PMC9112550, “Optimization of the antimicrobial peptide Bac7 by deep mutational scanning” (BMC Biology, 2022)
# Test system: Escherichia coli TOP10
# Test: shrunken log2 fold change of peptide-encoding DNA abundance (4.5 h post-induction vs induction); higher = less antimicrobial activity (less host growth inhibition)
# Details: time post-induction: 4.5 h; library: site-saturation at positions 5, 18, 19, 20
# 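Further: peptides expressed intracellularly from a pBAD plasmid library in pooled LB shake-flask culture, induced with 0.3% L-arabinose, DNA abundance read by NGS, three biological replicates, DESeq2 with apeglm shrinkage.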
row,Sequence,shrunken log2 fold change
1,RRIRSRPPRLPRPRPRPAYHPRP,-0.1
2,RRIRYRPPRLPRPRPRPWVCPRP,-0.0275
3,RRIRHRPPRLPRPRPRPLTKPRP,0.133
4,RRIRIRPPRLPRPRPRPIEKPRP,-0.0304
5,RRIRLRPPRLPRPRPRPRAMPRP,0.373
6,RRIRDRPPRLPRPRPRPKQGPRP,0.0662
7,RRIRWRPPRLPRPRPRPIVTPRP,0.0938
8,RRIRNRPPRLPRPRPRPCFSPRP,-0.378
9,RRIRFRPPRLPRPRPRPKVFPRP,0.0358
10,RRIRKRPPRLPRPRPRPESEPRP,2.93
11,RRIRDRPPRLPRPRPRPSGWPRP,0.558
12,RRIRYRPPRLPRPRPRPNDGPRP,-0.0117
13,RRIRARPPRLPRPRPRPFHWPRP,0.277
14,RRIRKRPPRLPRPRPRPSTSPRP,-0.0896
15,RRIRHRPPRLPRPRPRPLNCPRP,-0.134
16,RRIRFRPPRLPRPRPRPCYVPRP,-0.0693
17,RRIRFRPPRLPRPRPRPSYWPRP,-0.519
18,RRIRCRPPRLPRPRPRPFKDPRP,-0.54
19,RRIRSRPPRLPRPRPRPPRNPRP,0.415
20,RRIRTRPPRLPRPRPRPDSVPRP,-0.0144
21,RRIRDRPPRLPRPRPRPHLEPRP,-0.169
22,RRIRHRPPRLPRPRPRPTPAPRP,0.681
23,RRIRGRPPRLPRPRPRPHKAPRP,-0.0636

row,Sequence,shrunken log2 fold change
1,RRIRHRPPRLPRPRPRPSHWPRP,-0.288
2,RRIRARPPRLPRPRPRPIHTPRP,0.0197
3,RRIRCRPPRLPRPRPRPHGHPRP,-0.167
4,RRIRTRPPRLPRPRPRPVDLPRP,-0.0153
5,RRIRVRPPRLPRPRPRPDLKPRP,0.00797
6,RRIRQRPPRLPRPRPRPSSRPRP,-0.14
7,RRIRVRPPRLPRPRPRPRELPRP,-0.0137
8,RRIRMRPPRLPRPRPRPVFGPRP,0.411
9,RRIRIRPPRLPRPRPRPPGPPRP,0.575
10,RRIRSRPPRLPRPRPRPEANPRP,0.542
11,RRIRYRPPRLPRPRPRPIHWPRP,-0.182
12,RRIRKRPPRLPRPRPRPSKRPRP,0.0981
13,RRIRPRPPRLPRPRPRPLLPPRP,-0.0532
14,RRIRYRPPRLPRPRPRPHNDPRP,-0.692
15,RRIRLRPPRLPRPRPRPVAQPRP,0.391
16,RRIRRRPPRLPRPRPRPAVIPRP,0.00992
17,RRIRYRPPRLPRPRPRPNYEPRP,-0.399
18,RRIRMRPPRLPRPRPRPRRRPRP,1.53
19,RRIRDRPPRLPRPRPRPDSTPRP,-0.00421
20,RRIRNRPPRLPRPRPRPAMKPRP,0.284
21,RRIRHRPPRLPRPRPRPNLVPRP,-0.00912
22,RRIRARPPRLPRPRPRPFSDPRP,-0.169
23,RRIRERPPRLPRPRPRPVMFPRP,0.934

row,Sequence,shrunken log2 fold change
1,RRIRHRPPRLPRPRPRPKSQPRP,-0.149
2,RRIRIRPPRLPRPRPRPECTPRP,-0.0501
3,RRIRSRPPRLPRPRPRPHASPRP,0.188
4,RRIRHRPPRLPRPRPRPCKAPRP,-0.0317
5,RRIRIRPPRLPRPRPRPYDFPRP,0.126
6,RRIRPRPPRLPRPRPRPVTVPRP,-0.163
7,RRIRCRPPRLPRPRPRPVFMPRP,-0.359
8,RRIRKRPPRLPRPRPRPSFWPRP,0.299
9,RRIRRRPPRLPRPRPRPNHWPRP,0.0169
10,RRIRVRPPRLPRPRPRPDAMPRP,0.0806
11,RRIRYRPPRLPRPRPRPEEMPRP,-0.0902
12,RRIRDRPPRLPRPRPRPSRKPRP,-0.0764
13,RRIRIRPPRLPRPRPRPRIRPRP,-0.204
14,RRIRQRPPRLPRPRPRPPQPPRP,1.1
15,RRIRYRPPRLPRPRPRPIRNPRP,-1.17
16,RRIRDRPPRLPRPRPRPQEHPRP,-0.0802
17,RRIRKRPPRLPRPRPRPPFWPRP,1.2
18,RRIRFRPPRLPRPRPRPFGAPRP,0.168
19,RRIRPRPPRLPRPRPRPWYNPRP,-0.184
20,RRIRHRPPRLPRPRPRPKVIPRP,0.109
21,RRIRYRPPRLPRPRPRPPREPRP,-0.0166
22,RRIRSRPPRLPRPRPRPWANPRP,0.0508
23,RRIRTRPPRLPRPRPRPLALPRP,-0.0853

row,Sequence,shrunken log2 fold change
1,RRIRKRPPRLPRPRPRPSFFPRP,-0.0585
2,RRIRHRPPRLPRPRPRPYYKPRP,-0.913
3,RRIRLRPPRLPRPRPRPIKQPRP,-0.00202
4,RRIRQRPPRLPRPRPRPKGQPRP,-0.0264
5,RRIRSRPPRLPRPRPRPGFHPRP,0.0792
6,RRIRNRPPRLPRPRPRPYQRPRP,-0.0199
7,RRIRSRPPRLPRPRPRPHLVPRP,-0.118
8,RRIRKRPPRLPRPRPRPWDPPRP,-0.235
9,RRIRNRPPRLPRPRPRPVCGPRP,0.0972
10,RRIRVRPPRLPRPRPRPFHYPRP,-0.318
11,RRIRNRPPRLPRPRPRPFVLPRP,-0.451
12,RRIRYRPPRLPRPRPRPQVPPRP,-0.124
13,RRIRGRPPRLPRPRPRPGQEPRP,0.974
14,RRIRFRPPRLPRPRPRPSENPRP,-0.458
15,RRIRIRPPRLPRPRPRPCAVPRP,-0.431
16,RRIRRRPPRLPRPRPRPSFYPRP,-0.36
17,RRIRGRPPRLPRPRPRPHGFPRP,0.422
18,RRIRHRPPRLPRPRPRPDHCPRP,0.0278
19,RRIRDRPPRLPRPRPRPPLGPRP,0.547
20,RRIRVRPPRLPRPRPRPQGQPRP,0.00581
21,RRIRDRPPRLPRPRPRPWTEPRP,0.0384
22,RRIRTRPPRLPRPRPRPQASPRP,2.4
